Measurements: publication PMC3102090, “Interaction between Amyloid Beta Peptide and an Aggregation Blocker Peptide Mimicking Islet Amyloid Polypeptide” (PLoS ONE, 2011)
Square brackets hold non-standard residues; d marks the D form. Ends that are not written are not given here. fluorescein = fluorescein (N-terminal label); NMeI = CC[C@H](C)[C@H](NC)C(=O)O; Sar = CNCC(=O)O

How the values were obtained:
Aβ and α-synuclein = conditions: ref [41]; cited from earlier work
Excerpt: In agreement with their intrinsic aggregation propensities, the agg ...

[1] = molecular target: IAPP-GI (Fluos-IAPP-GI) (Homo sapiens) (UniProt P10997); assay: fluorescence titration; conditions: cited from earlier work
[2] = Side chain 1H-15N HSQC of histidines of Aβ42; assay type: physicochemical; conditions: 30 µM Aβ42, no IAPP-GI, pH 7.3, 278 K
Experimental: ^1H-^15N HSQC spectra of the side chains of histidines (H6, H13 and H14) were acquired on a Bruker AMX 600 MHz spectrometer equipped with a triple-resonance cryogenic probe. […] A 30 µM sample of Aβ42 was also measured. The INEPT transfer delay was selected as 27.8 ms, to obtain the coherence transfer from the ε1H and δ2H protons to the ε2N and δ1N through the ^2J coupling constant (Figure 1B). The carrier and SWH values were 5.00 ppm and 6010 Hz in the direct dimension, and 185.31 ppm and 9728 Hz in the indirect dimension. The experimental matrix was 2K*256 complex data points, which after apodization through a 90°-shifted squared sine bell function in both dimensions was transformed to a final matrix of 8K*512 data points.

[3] = CLEANEX-PM-FHSQC water-amide proton exchange; assay type: physicochemical; conditions: 30 µM Aβ42, no IAPP-GI, pH 7.3, 278 K
Experimental: In a CLEANEX-PM-FHSQC experiment, exposed parts of the backbone gain high signal intensity already at short mixing times due to efficient exchange with water, while for more protected groups the signal intensity only rises at longer mixing times.
To this end, CLEANEX-PM-FHSQC experiments were recorded on a Bruker Avance 600 MHz spectrometer equipped with a triple-resonance room temperature probe. […] The intensity of peaks as a function of mixing time was fitted to the following equation: [drawing 1] (1) where V0 is the intensity of the peak in a control FHSQC experiment, k is the normalized rate constant related to the forward exchange rate constant between water and NH protons, and R1A and R1B are apparent longitudinal relaxation rates for protein and water [32].

Aβ40 = Aβ40 (Homo sapiens, UniProt P05067); conditions: Fluos-IAPP-GI (1 nM) titrated with low nano- to submicromolar Aβ40; fluorescence; ref [18]; read-out: app. Kd, IAPP-GI-Aβ40 interaction; cited from earlier work
IAPP = conditions: ref [38]; cited from earlier work
[4] = cited from earlier work
Excerpt: Therefore, we needed to find an experimental condition under which these two peptides predominantly populate a monomeric state.

Chain of Amyloid beta 40 1-40 (P05067 1-40): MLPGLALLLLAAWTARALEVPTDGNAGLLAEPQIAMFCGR
Chain of Aβ40 (P05067 672-711 limits assumed): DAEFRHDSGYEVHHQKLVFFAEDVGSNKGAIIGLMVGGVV
Chain of IAPP-GI (Fluos-IAPP-GI) (Homo sapiens) (P10997 32-73): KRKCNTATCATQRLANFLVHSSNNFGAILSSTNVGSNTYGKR

Which “redirection of Aβ and α-synuclein into off-pathway oligomers” value (Aβ and α-synuclein) does the source give for `O=C(O[C@@H]1Cc2c(O)cc(O)cc2O[C@@H]1c1cc(O)c(O)c(O)c1)c1cc(O)c(O)c(O)c1` [(-)-epigallocatechin gallate] here?
Its value is “redirection of Aβ and α-synuclein into off-pathway oligomers”.

With “Amyloid beta 40 1-40 (from UniProt P05067)” as the compound, how does the Kd [1] read?
Its Kd is 41.2 nM.

For “Aβ42: amyloid-beta peptide; 15N-uniformly labeled Aβ1-42 purchased from rPeptide”, which “histidine side-chain peak pattern of pure Aβ42” value [2] is on record?
The value was “very similar to that of Aβ40 with IAPP-GI”.

What about the “water-amide proton exchange rates of Aβ42 compared with Aβ40” value [3] of the same compound?
Its value is “the exchange rates are reduced in regions (Figure 9) that are also affected upon addition of IAPP-GI to Aβ40”.

Which Kd (Aβ40) does the source give for “Fluos-IAPP-GI: N-terminal fluorescein labeled IAPP-GI (fluorescein-KCNTATCATQRLANFLVHSSNNF[Sar]A[NMeI]LSSTNVGSNTY; ends and bridges not checked)” here?
The Kd was 50 nM.

Which “affinity of N-terminal part of Aβ for IAPP” value (IAPP) does the source give for “N-terminal part (residues 1–28): N-terminal part of Aβ (residues 1–28)” here?
Its value is “low µM affinity”.

With “human IAPP: Islet Amyloid Polypeptide, hydrophobic strongly amyloidogenic peptide produced in the pancreatic islet cells (KCNTATCATQRLANFLVHSSNNFGAILSSTNVGSNTY; not fully specified (C-terminus, bridges); cysteine pairing not given here; UniProt P10997 34-70, looked up)” as the compound, how does the “assembly state of human IAPP” value ([4]; neutral pH, 4°C, concentration as high as 255 µM (1 mg/mL), analytical ultracentrifugation and diffusion NMR, ref [24], [25]) read?
The value was “kinetically stable state consisting of monomers and high molecular weight oligomers”.

What about the “self-association of human IAPP” value ([4]; temperatures above 20°C, ref [24]-[27]) of the same compound?
Its value is “rapidly drives monomeric IAPP molecules toward oligo- and multimerization”.
